Measurements as given in publication PMC8442553 (Science (New York, N.Y.), 2019).

How the values were obtained:
Test in all cases: cryo-EM structure
Rsc3 = molecular target: T1, Rsc3 (yeast, UniProt Q06639 1-885)
T1 sequence: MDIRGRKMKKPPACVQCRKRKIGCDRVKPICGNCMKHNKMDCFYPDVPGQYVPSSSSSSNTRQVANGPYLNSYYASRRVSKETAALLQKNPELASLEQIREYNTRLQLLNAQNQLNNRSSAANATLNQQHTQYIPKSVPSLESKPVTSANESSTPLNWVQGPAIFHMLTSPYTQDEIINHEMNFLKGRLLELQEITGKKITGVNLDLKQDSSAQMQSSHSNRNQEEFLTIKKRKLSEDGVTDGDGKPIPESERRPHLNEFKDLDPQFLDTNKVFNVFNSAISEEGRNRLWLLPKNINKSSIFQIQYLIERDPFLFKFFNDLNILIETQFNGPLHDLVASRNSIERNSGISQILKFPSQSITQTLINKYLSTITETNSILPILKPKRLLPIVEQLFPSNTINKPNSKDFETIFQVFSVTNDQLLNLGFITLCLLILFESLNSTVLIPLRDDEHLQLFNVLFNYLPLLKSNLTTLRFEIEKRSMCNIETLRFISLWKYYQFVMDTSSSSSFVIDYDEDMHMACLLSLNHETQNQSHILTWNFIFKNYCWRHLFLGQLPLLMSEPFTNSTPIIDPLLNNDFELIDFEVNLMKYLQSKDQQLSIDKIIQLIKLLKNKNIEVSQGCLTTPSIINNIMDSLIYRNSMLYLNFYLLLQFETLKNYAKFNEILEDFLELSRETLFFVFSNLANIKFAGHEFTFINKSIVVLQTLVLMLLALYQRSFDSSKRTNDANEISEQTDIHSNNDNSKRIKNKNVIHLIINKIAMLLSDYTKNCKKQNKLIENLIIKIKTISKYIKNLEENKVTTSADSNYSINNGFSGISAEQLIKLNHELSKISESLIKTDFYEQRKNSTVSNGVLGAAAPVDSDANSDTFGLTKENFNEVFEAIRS

Rsc30 = molecular target: T2, Rsc30 (yeast, UniProt P38781 1-883)
T2 sequence: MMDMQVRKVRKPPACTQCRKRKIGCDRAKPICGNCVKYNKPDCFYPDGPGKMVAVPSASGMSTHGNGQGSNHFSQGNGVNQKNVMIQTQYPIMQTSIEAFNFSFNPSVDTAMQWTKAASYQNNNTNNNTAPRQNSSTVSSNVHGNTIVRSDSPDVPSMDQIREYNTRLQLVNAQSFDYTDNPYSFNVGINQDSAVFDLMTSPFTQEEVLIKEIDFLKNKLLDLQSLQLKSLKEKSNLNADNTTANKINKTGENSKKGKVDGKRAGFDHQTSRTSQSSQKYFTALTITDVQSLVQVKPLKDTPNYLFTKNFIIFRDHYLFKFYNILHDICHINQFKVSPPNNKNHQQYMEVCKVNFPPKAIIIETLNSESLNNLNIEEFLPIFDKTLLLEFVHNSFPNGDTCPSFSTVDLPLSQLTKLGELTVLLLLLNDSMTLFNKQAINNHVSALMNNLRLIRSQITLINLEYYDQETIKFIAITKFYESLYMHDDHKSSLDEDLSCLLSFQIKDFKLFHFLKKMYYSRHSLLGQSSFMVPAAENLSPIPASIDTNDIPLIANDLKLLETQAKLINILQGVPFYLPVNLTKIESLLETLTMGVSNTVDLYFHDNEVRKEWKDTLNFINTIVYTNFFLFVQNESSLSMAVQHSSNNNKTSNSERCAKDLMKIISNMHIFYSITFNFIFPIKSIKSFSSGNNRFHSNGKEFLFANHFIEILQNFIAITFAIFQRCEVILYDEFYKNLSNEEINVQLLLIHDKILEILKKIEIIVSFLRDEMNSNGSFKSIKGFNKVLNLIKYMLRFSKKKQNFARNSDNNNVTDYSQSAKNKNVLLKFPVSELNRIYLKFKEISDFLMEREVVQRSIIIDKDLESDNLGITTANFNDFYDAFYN

Sth1 = molecular target: T3, Sth1 (yeast, UniProt P32597 1-1359)
T3 sequence: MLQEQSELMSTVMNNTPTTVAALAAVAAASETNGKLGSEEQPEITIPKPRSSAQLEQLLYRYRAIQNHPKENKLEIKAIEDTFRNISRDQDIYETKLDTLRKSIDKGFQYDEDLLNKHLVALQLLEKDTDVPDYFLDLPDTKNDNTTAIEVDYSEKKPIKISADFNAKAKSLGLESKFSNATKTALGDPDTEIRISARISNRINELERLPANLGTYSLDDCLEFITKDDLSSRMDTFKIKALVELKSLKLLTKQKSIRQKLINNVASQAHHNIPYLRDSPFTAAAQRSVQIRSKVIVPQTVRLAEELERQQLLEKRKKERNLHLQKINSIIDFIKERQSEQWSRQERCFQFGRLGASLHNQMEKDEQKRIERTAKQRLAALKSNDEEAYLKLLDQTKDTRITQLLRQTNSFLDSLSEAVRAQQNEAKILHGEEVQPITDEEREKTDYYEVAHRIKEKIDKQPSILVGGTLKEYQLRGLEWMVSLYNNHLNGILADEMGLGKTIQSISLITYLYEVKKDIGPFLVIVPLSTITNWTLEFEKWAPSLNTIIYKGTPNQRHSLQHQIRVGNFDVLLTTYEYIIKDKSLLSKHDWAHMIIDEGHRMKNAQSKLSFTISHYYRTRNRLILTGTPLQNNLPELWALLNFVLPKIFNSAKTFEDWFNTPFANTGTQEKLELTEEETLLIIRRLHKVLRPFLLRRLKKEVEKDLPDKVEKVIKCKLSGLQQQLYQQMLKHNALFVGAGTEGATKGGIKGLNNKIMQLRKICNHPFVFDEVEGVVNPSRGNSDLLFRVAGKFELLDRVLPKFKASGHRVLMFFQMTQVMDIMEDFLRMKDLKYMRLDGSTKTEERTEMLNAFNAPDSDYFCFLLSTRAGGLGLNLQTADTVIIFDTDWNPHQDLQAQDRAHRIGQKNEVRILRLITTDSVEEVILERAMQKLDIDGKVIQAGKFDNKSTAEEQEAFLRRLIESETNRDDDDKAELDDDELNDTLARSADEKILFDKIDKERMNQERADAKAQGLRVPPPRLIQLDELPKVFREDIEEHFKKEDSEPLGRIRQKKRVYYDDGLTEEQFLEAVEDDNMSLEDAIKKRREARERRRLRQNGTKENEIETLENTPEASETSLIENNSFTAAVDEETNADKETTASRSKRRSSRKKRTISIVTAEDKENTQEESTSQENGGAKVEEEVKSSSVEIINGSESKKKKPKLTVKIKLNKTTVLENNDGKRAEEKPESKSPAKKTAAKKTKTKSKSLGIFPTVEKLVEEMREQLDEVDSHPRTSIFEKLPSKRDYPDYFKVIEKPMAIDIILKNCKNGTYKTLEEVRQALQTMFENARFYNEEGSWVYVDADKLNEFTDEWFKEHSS

Measured: binding result

B1: Rsc9 (natural protein, yeast)
chain: MNSLASNTPLNGTPVSEAPATSSEPVNMFETMVANPIKVSRLQSNGVLTGPAANTKSIHYSLANFNVFQSLPKETARGVDDLTRMEMALLSGIPEEIKWSLKKYLTYSNKAPYMISLRTLPDLLPLFKTFILPLERIVEGLNKSSICDSKAMDSLQMGLNALLILRNLAQDTDSVQILVKDREIKSFILFILKKFQCVATGDNKWQLYEGNATFFNELTHYTLDLMEAISSYIAPAMKDDHYFQTLVSILNYTKDRYMVISILRSLSRLLVRSKANEESAADNLDHKTLSLIVSFLLLECDSELIIASLDFLYQYILPGSQRITELFKSKECSLILEATLPNLLSYNIATPDYHLLQKHKIRLIKRLKPPAPKEPPNLSEDLFQQLFKLNEPLRSTAWLRCCFEPVQEAEFTQISLWRSYESKFGQPVRESGRKLLPAVEFIKNVSNAFNNAAAIVITDPVTGKKRFVIKGIQPRFKALGIADGERESQVPISALKSKFLNDSKEITPARQNSIPEVKFPQELSDVSKVACTFLCLLSNDTDDGAGSAFCQRIRPLVLHKLADIPPLTLALSEYMENTSGL
binds: all assays above
